Test results as given in patent US20260210971A1 (Pfizer, published 2026).
Where a chain is given by its changes, count along the chain named. Several values for one entry are separate records, joined by “and”; a condition that tells them apart may be missing. Equal values may be shown once.

Assays:
[1] = target: T1, recombinant soluble human TL1A (human, UniProt O95150 71-251); test: cell-based or functional assay
T1 sequence: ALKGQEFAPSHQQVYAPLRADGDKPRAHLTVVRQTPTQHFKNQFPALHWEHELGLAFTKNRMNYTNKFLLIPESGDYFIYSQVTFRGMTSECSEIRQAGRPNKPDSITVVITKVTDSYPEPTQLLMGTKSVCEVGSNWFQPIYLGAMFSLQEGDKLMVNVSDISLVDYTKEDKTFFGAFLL

[2] = target: T2, endogenous TL1A of stimulated human peripheral blood (human, UniProt O95150 72-251, limits assumed); test: cell-based or functional assay
T2 sequence (looked up): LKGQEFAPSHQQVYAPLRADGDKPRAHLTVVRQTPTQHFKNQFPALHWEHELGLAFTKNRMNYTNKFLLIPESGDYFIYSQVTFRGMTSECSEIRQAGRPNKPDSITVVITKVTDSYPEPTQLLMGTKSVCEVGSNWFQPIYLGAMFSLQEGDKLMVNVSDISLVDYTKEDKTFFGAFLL

[3] = target: T1, recombinant soluble human TL1A; test: KinExA, equilibrium in solution
Description: (§1) This assay involves pre-incubating antibody: antigen mixtures in solution long enough to reach equilibrium before measuring the level of unbound antibody using a solid phase component. […] Beads were blocked for 1 hour with PBS plus 10 mg/ml bovine serum albumin (bovine serum albumin, Sigma) at room temperature before being diluted up to a total of 27 ml in PBS. […] For each titration series, a buffer sample and a sample of antibody alone were included. Each antibody: TL1A mixture was tumbled at room temperature for at least six hours to reach equilibrium and then each mixture was injected over the solid phase of TL1A-coated beads in the instrument flow cell. […] Beads were replenished between each sample. Binding signals of detected free antibody were converted to percentage of free, unbound antibody as measured by the antibody only sample and plotted versus each concentration of TL1A. For each antibody, the KD and ABC controlled curves were fit simultaneously using n-Curve Analysis software v3.1.4 to fit the curves to the ‘affinity, unknown ligand’ model and measure an equilibrium KD.
(§2) Solution-based kinetic exclusion assays (KinExA) were carried out as an orthogonal technique to measure equilibrium KD values.

[4] = target: T3, recombinant soluble cynomolgus monkey TL1A (cynomolgus monkey, UniProt O95150 72-251 (human entry)); test: KinExA, equilibrium in solution
T3 construct: also called cyno rsTL1A; cyno TL1A
T3 chain: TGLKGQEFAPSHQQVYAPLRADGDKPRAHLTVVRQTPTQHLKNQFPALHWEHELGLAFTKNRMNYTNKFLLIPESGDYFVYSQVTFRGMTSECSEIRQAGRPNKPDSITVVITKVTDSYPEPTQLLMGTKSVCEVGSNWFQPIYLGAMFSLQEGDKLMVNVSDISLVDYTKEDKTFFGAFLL
Description: as §1, §2

[5] = target: T4, recombinant soluble murine TL1A (mouse, UniProt Q5UBV8 75-252); test: KinExA, equilibrium in solution
T4 construct: also called murine rsTL1A; mouse TL1A
T4 chain: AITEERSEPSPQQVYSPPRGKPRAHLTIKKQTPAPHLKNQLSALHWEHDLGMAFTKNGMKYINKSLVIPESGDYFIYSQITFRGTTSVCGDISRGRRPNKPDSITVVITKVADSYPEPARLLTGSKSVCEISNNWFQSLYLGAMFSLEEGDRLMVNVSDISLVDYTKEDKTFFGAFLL
Description: as §1, §2

[6] = target: T3, recombinant soluble cynomolgus monkey …; test: SPR, IgG captured on anti-hIgG, TL1A injected;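 also: biacore surface plasmon resonance on a dextran sensor chip, double-referenced sensorgrams fitted to a one-to-one binding model, KD taken as dissociation over association rate constant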
Excerpt: (§3) The antibodies were captured via directly immobilized anti-human IgG (GE Healthcare) onto a carboxymethylated dextran sensor chip surface (CM5) using a Biacore T100 or T200 instrument. Anti-human IgG was immobilized through amine coupling to densities of approximately 4,000-13,000 response units (RU). […] At the end of each cycle, the entire anti-hIgG surface was regenerated by a 30-second pulse of 3M MgCl₂ followed by two consecutive 15-second pulses of PBS-NET. […] All injections were performed at 25° C. at a collection rate of 10 Hz. All sensorgrams were double referenced by using both a control surface and buffer injections. Rate constants were determined by fitting the data to a 1:1 model in Biacore T100, T200 evaluation software v1.0, or BIAevaluation software v4.1.1 and the equation KD=Kd/kₐ.
(§4) At the highest cytokine concentrations, the dissociation phase was sometimes extended to 60 minutes to achieve at least a 5% decrease in binding signal.

[7] = target: T5, recombinant soluble rat TL1A (rat, UniProt Q8K3Y7 76-252); test: SPR, IgG captured on anti-hIgG, TL1A injected
T5 construct: also called rat rsTL1A
T5 sequence: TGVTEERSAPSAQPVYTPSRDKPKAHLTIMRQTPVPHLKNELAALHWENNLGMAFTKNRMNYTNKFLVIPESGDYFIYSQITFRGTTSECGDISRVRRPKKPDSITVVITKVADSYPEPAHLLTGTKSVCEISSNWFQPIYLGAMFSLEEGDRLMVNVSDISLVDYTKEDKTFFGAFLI
Excerpt: as §3, §4

[8] = target: T1, recombinant soluble human TL1A; test: plate ELISA, TL1A coated, antibody titrated; plate of TNFSF10
Description: (§5) The first 6 rows of each plate were coated with the test article cytokine, and the last two rows were coated with TL1A as a positive control. Rows 1 and 2 were duplicate rows where the test article cytokine was tested for binding to increasing concentrations of its corresponding anti-cytokine positive control antibody. […] The experiment for each cytokine was repeated three times.
(§6) Plates were incubated overnight at 4° C. After washing the plates three times (3×) with 300 μL PBST using a plate washer (model ELx405; BioTek), plates were blocked by incubating for 1 hour at room temperature with 300 μL of blocking buffer (PBST+0.5% BSA) in each well. […] Plates were then washed 5 times with PBST using the plate washer.

[9] = target: T1, recombinant soluble human TL1A; test: plate ELISA, TL1A coated, antibody titrated; plate of TNFSF14
Description: as §5, §6

[10] = target: T1, recombinant soluble human TL1A; test: SPR, IgG captured on anti-hIgG, TL1A injected; off rate too slow to measure
[11] = target: T1, recombinant soluble human TL1A; test: plate ELISA, TL1A coated at 1 µg/mL, detection with anti-human IgG HRP
Description: as §5, §6

[12] = target: T2, endogenous TL1A of stimulated human …; test: MSD ligand-binding assay of 1D1 1.31-free sTL1A in plasma of stimulated human blood
Description: (§7) After 24 hours of culture at 37° C., 100 μL of 5% bovine serum albumin in PBS were added and mixed well with the 200 μL of blood cultures to dilute plasma (dilution factor: 1.5). […] IFNγ was measured using the MSD human IFNγ kit (Catalog No. K151AEB-1) following the manufacturer's instructions. […] The following day, plates were washed three times with 150 μL per well of 0.1% Tween 20 in PBS, followed with 150 μL per well of blocking solution (5% bovine serum albumin in PBS), then the plates were incubated at room temperature for 1 hour with orbital shaking (1500 rpm). After the plates were washed as mentioned above, diluted plasma samples were added and incubated at 4° C. overnight. […] TL1A standard curves were generated using recombinant human soluble TL1A. Plates were read following the manufacturer's procedure, standard curve and plasma concentration of the cytokine were calculated with the MSD software.

[13] = target: T6, human TNFSF6 (FAS Ligand) (human, UniProt P48023 134-281, limits assumed); test: plate ELISA, TNFSF6 coated at 1 µg/mL, detection with anti-human IgG HRP
T6 sequence (looked up): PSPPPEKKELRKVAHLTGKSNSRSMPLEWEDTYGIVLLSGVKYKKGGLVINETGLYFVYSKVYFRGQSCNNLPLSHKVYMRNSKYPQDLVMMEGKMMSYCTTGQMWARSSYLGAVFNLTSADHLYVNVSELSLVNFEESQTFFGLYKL
Description: as §5, §6

[14] = target: T1, recombinant soluble human TL1A; test: flow cytometry, inhibition of the binding of 10 µg/mL biotinylated TL1A to DR3-transfected HEK293 cells
[15] = target: T2, endogenous TL1A of stimulated human …; test: MSD ligand-binding assay of 1D1 1.31-free soluble TL1A in plasma of human whole blood stimulated 24 h with immune complex + IL-12/IL-18
Description: as §7

[16] = target: T7, endogenous TL1A of stimulated cynomolgus monkey peripheral blood (cynomolgus monkey, UniProt G7PRK8 72-251); test: MSD ligand-binding assay of 1D1 1.31-free soluble TL1A in plasma of cynomolgus whole blood stimulated 24 h with immune complex + IL-12/IL-18 (representative experiment)
T7 construct: also called sTL1A (cynomolgus)
T7 sequence: T2 sequence (looked up) with F39L, I78V
Description: Controls included stimulation without antibody as well as no, or single stimulation controls (only IC or only IL-12/IL-18) in triplicate. After 24 hours of culture at 37° C., 200 μL of 5% bovine serum albumin in PBS were added and mixed well with the 100 μL of blood cultures to dilute plasma (dilution factor: 3). […] IFNγ was measured using the MSD human IFNγ kit (Catalog No. K151AEB-1) following the manufacturer's instructions. […] The following day, plates were washed three times with 150 μL per well of 0.1% Tween 20 in PBS, followed with 150 μL per well of blocking solution (5% bovine serum albumin in PBS), then the plates were incubated at room temperature for 1 hour with orbital shaking (1500 rpm). […] Plates were incubated at room temperature for 2 hours with orbital shaking (1500 rpm) followed by the same plate wash protocol mentioned above. TL1A standard curves were generated using recombinant cynomolgus monkey soluble TL1A. Plates were read following the manufacturer's procedure, standard curve and plasma concentration of the cytokine were calculated using the MSD software per manufacturer's instructions.

B1: 1D1 1.31 (antibody, human IgG1, kappa, V domains shown)
VH: QVQLVQSGAEVKKPGASVKVSCKASGYDFTYYGISWVRQAPGQGLEWMGWISTYNGNTHYARMLQGRVTMTTDTSTRTAYMELRSLRSDDTAVYYCARENYYGSGAYRGGMDVWGQGTTVTVSS
VL: EIVLTQSPATLSLSPGERATLSCRASQSVSSYLAWYQQKPGQAPRLLIYDASNRATGIPARFSGSGSGTDFTLTISSLEPEDFAVYYCQQRSNWPWTFGQGTKVEIKR
notes: Full length human IgG1 with effector function-null mutations in the Fc, produced in CHO cells; Used biotinylated for staining of monocytes
In the case of B1, the “inhibition of NFκB activation by 150 pM TL1A in TF-1-NFκB-luciferase cells, IC50” value [1] is reported as 95 pM, the “inhibition of caspase activation by 87 pM TL1A in TF-1 cells, IC50” value [1] is reported as 69 pM and the “inhibition of IFNγ secretion in stimulated human whole blood, IC50” value [2] is reported as 277 pM. The Kd [3] was 1.38 pM and 3.6 pM, the Kd [4] was 3.5 pM and the Kd [5] was 95.3 pM. The Kd [6] was 81 pM, the koff [6] was 3.6e-05 s⁻¹ and the kon [6] was 450000 M⁻¹ s⁻¹. The t1/2 [6] was 5.34 h, the Kd [7] was 4860 pM and the koff [7] was 0.0026 s⁻¹. It also gave a kon [7] of 540000 M⁻¹ s⁻¹, a t1/2 [7] of 4.38 min and an EC50 [8] of 0.008 ng/mL. The EC50 [9] was 0.0084 ng/mL, the Kd [10] was < 100 pM and the “EC50 (read off the curve)” value [11] was ~8 ng/mL. For the same binder, the IC50 [12] was 1.06 pM, the binding result [13] was “no binding (tested: 25 µg/ml)” and the IC50 [14] was 18700 ng/mL. The “IC50 (read off the curve)” value [15] was ~5 pM and the IC50 [16] was 0.169 pM.
